Assay [1] concerns the target ErbB4 receptor (rat (endogenous in rat brain membranes and cultured rat hippocampal neurons)). In words: co-IP; ErbB4 immunoprecipitated with mAB10 from lysates (PBS + 1% TX-100) of cultured rat hippocampal neurons (>DIV 28), unstimulated or 10 nM NRG2 for 10 min; western blot, densitometric ratio of glutamate receptor subunit over ErbB4.
Assay [2] shares this target.

ErbB4 receptor (rat (endogenous in rat brain membranes and cultured rat hippocampal neurons)), sequence (Q62956 26-1308): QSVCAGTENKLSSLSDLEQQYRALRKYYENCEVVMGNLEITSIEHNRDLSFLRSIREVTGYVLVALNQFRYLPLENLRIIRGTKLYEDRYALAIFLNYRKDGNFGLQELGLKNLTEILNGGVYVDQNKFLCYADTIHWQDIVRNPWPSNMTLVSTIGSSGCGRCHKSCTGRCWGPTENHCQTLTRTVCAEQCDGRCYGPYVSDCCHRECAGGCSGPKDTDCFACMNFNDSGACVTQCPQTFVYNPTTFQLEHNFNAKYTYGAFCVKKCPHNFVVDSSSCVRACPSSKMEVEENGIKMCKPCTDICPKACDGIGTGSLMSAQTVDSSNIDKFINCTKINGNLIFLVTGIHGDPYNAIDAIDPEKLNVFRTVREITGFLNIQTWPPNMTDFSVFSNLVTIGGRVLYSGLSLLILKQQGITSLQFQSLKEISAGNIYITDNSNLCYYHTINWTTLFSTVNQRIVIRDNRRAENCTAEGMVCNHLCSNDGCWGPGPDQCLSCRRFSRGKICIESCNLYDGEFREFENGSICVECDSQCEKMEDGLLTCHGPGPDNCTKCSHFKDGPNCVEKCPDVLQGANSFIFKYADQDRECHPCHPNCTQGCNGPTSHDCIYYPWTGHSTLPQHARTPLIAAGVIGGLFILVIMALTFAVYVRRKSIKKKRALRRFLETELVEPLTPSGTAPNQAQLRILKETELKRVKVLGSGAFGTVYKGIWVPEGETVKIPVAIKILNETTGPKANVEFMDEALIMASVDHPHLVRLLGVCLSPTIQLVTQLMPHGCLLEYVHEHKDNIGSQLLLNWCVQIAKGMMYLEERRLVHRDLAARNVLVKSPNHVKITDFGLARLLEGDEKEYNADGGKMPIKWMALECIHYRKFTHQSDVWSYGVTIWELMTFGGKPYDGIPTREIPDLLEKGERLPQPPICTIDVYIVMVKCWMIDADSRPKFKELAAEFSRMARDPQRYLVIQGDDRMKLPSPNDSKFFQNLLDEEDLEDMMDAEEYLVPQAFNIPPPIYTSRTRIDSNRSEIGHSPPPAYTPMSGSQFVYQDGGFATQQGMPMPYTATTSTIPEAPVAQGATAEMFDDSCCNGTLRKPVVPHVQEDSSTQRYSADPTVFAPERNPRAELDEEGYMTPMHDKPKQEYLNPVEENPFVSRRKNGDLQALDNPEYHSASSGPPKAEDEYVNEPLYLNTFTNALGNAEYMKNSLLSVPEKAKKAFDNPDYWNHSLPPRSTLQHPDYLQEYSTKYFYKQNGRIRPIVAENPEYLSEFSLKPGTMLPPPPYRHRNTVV

“GluN2B subunit of the NMDA receptor (from UniProt Q00960 27-1482)”: the co-immunoprecipitation after NRG2, % of unstimulated controls (% of controls) in assay [1] was determined as 198. In assay [2], “recombinant NRG2-ECD (neuregulin 2 extracellular domain) (ligand)” gave a whole-cell NMDA-evoked currents (100 μM NMDA, +40 mV) in ErbB4+ cultured hippocampal interneurons after 10 min of 10 nM NRG2, relative to baseline; ErbB4-negative neurons not affected (% of baseline) of 43.

These data come from article PMC4451617.
